Measured values reported in patent US20240327504A1 (MABLOC, published 2024).

Biological target: SARS-CoV-2 Spike, WT (SARS-CoV-2, UniProt P0DTC2 14-1273)
Experiment: cell-based or functional assay

B1: MR22950 antibody (antibody, V domains shown)
VH: QLQLQESGPGLVKPSEPLSLTCAVSGGFIGTNWWTWIRQPPGKGLEWIGRISGSVGSTSYNPSLKSRVTISRDTSKNQFSLNLNSLTAADTAVYYCAREGRLDTLDWGQGVLVIVSS
VL: QSVLTQPPSASEAARKSVTISCSGSSSNIGSYSVSWYQQFPGTPPKLLIYFNDQRASGVSDRFSGSKSGTSASLAISGLQTEDEADYYCAGWDDSLNGVLFGGGTRLTVLG
Neut50: 6 ng/mL
